The experiment concerns the target T1, SARS-CoV-2 receptor binding domain, omicron subvariant BA5 (RBDBA5) (SARS-CoV-2, Omicron BA.5, strain).
T1 construct: also called Omicron BA5 RBD
Kind of experiment: SPR; Biacore T200, […]; 25°C, HBS-EP+ ([…], pH 7.4); 1:1 binding model; triplicate. To be noted: both partners purified.

B1: antibody 10-40 with triple mutations (S32H heavy, R100bI heavy, Q53F light) (antibody, V domains shown)
VH: QLQLQESGPGLVKPSETLSLTCTVSGGSISSHNFYWGWIRQPPGKGLEWIASITYSGRTFYNPSLKSRVAISVDTSKNQFSLKLSSVTAADTAVYYCARTFPSYYDISGYHYLNYGMDVWGQGTTVTVSS
VL: NFMLTQPHSMSESPGKTVTISCTRSSGSIASNYVQWYQQRPGSSPTTVIYEDNFRPSGVPDRFSGSIDSSSNSASLTISGLKTEDEADYYCQSYDSSSWVFGGGTKLTVL
notes: also called combination of S32HH, R100bIH, and Q53FL
Regarding B1, the “fold improvement of binding affinity over antibody 10-40” value was > 5000 fold.
